What all share (test): Steady-state kinetics, DNA- and RNA-dependent polymerase activity
Substrate in series [1]: Cc1cn([C@H]2C[C@H](O)[C@@H](COP(=O)(O)OP(=O)(O)OP(=O)(O)O)O2)c(=O)[nH]c1=O
The class given is biochemical, Caldibacillus cellulovorans CompA.2. Particulars: 55 °C, mean ± SD. How it is done: (§1) Purification of CA2, B.EA1, Rt41A, Dth, Tok13B, Tok7B, and Rt69B DNA polymerase. E. coli cells (BL21SI, Invitrogen Corporation, Carlsbad, Calif.) bearing the plasmid pET26B with the gene for CA2, B.EA1, Rt41A, or Dth DNA polymerase were grown in 2.8-1 Fembach flasks in LB broth containing no salt and 50 μg/ml kanamycin at 37° C. After the culture reached an A590 of 1.2, expression of DNA polymerase was induced with 0.3 M NaCl for 3 hr. Cells were harvested by centrifugation and stored at −70° C. E. coli cells (BL21AI) bearing the plasmid pET14B with the gene for Tok13B, Tok7B, or RT69B DNA polymerase were grown in 2.8-1 Fembach flasks in LB broth containing 50 μg/ml ampicillin at 37° C. After the culture reached an A590 of 1.0, expression of DNA polymerase was induced by the addition of 0.2% arabinose for 3 hr. Cells were harvested by centrifugation and stored at −70° C.
(§2) Steady-state kinetic measurements.
(§3) The catalytic rate constant kcat and the Michaelis constant KM were determined for both the DNA-dependent and RNA-dependent polymerase activities for the polypeptides of the invention and these parameters were compared to those of Tne DNA polymerase enzyme and […]™ II reverse transcriptase. […]

Substrate in series [2]: Nc1nc2c(ncn2[C@H]2C[C@H](O)[C@@H](COP(=O)(O)OP(=O)(O)OP(=O)(O)O)O2)c(=O)[nH]1
The series is classed as biochemical, Caldibacillus cellulovorans CompA.2. The conditions noted are these: other: Table 34, DNA template, 1.5 mM MgCl2, 55 °C per footnote *. How it is done:
as §1, §2, §3

Substrate in series [3]: Cc1cn([C@H]2C[C@H](O)[C@@H](COP(=O)(O)OP(=O)(O)OP(=O)(O)O)O2)c(=O)[nH]c1=O
The class given is biochemical, Bacillus caldolyticus EA1.3. Particulars: 55 °C, mean ± SD. How it is done:
as §1, §2

Substrate in series [4]: Cc1cn([C@H]2C[C@H](O)[C@@H](COP(=O)(O)OP(=O)(O)OP(=O)(O)O)O2)c(=O)[nH]c1=O
The class given is biochemical, Dictyoglomus thermophilum strain Rt46B.1. Particulars: 72 °C. How it is done:
as §1, §2

The mark [5] stands for this setting: other: Table 40, (dA)270•(dT)40, dTTP.
Where [6] appears, read: other: Table 40, (rA)250•(dT)30, dTTP.

Marks after values point to notes of the source that are not given here. A value given as a limit tells only on which side of the number the result lay.

As a reminder, the kcat is the maximal rate divided by the concentration of active sites.

B1: Caldibacillus cellulovorans CompA.2 (CA2) DNA polymerase, SEQ ID NO:16 ([Caldibacillus] cellulovorans) (protein)
chain: MKYLLPTAAAGLLLLAAQPAMAMGKLILVDGNSVANRAFYAVRLLSTRGGLHTNAVYGFANMLLKLIEEERPTHFLVAFDAGKATFRHREYEAYKAGRLQTPPELSEQFPYIRELVRAFGVASGELEEYEADDMIGTLAKRAEAEGVDTLVVTGDRDLLQLVSDRVTVALTRKGITETERYDPARIREEYGFDPDRIRDLKGLMGDASDNLPGVPGVGEKTALKLLRQYGSLESVLEHASEIAGKLGENLRAHADAARLSKRLATIDCAVPLQSGWDWLRLGEPDRAALASLLRQLEFKSLLKRLGLDGTSADADVDGVRSSARPADEKRPRAVAVAEEGVDVRCPDRPEEVEEALSRLEAAQSVVVEVTGDNPHDGEVRGVAWWDGHTAYFIPFERLVQSDMRPLADWLADARRPKRTHDSHRAEVALFWHGLAFRGTSFCTHIAAYLLDPTESRHTLADLSRRYGLPPVPEAEDVYGKGAKFKVPDRDTLARYVGRKAALVARLVPLLEADLAACGMRSLFYDLELPLSSELAVMETVGVRVDAAALAAYGEELREAAAKVEREIYELAGTTFNIGSTKQLGEILFDKLGLPVVKKTKTGYSTDADVLEELAPYHPIVEKILHYRQLTKLQSTYIEGLLKEIRPQTGKIHTYYQQTIAATGRLSSQFPNLQNIPIRLEEGRKIRKAFVPSEPGWLMLAADYSQIELRVLAHVSGDERLKEAFRTGMDIHTKTAMDVFGVSEDRVDARMRRQAKAVNFGIIYGISDFGLAQNLNISRKEAAEFIRQYFAVFSGVKAYRERIVEQARRDGYVTTLLGRRRYLPDINASNYNLRSFAERTAMNTPIQGTAADIIKTAMVRLTRRMRDVGLKSRMLLQVHDELVFEVPPDELDAMRELVTDVMESAVPLDVPLKVDVSWGADWYAAK
With B1, the kcat was 82 ± 9 s⁻¹ in series [1] (setting [5]), 48 ± 9 s⁻¹ in series [1] (setting [6]) and 200* s−1 in series [2].

B2: Bacillus caldolyticus EA1.3 (B.EA1) DNA polymerase, SEQ ID NO:20 ([Bacillus] caldolyticus) (protein)
chain: MKYLLPTAAAGLLLLAAQPAMAMGLKKKLVLIDGSSVAYRAFFALPLLHNDKGIHTNAVYGFTMMLNKILAEEEPTHMLVAFDAGKTTFRHEAFQEYKGGRQQTPPELSEQFPLLRELLRAYRIPAYELENYEADDIIGTLAARAEQEGFEVKVISGDRDLTQLASPHVTVDITKKGITDIEPYTPEAVREKYGLTPEQIVDLKGLMGDKSDNIPGVPGIGEKTAVKLLKQFGTVENVLASIDEIKGEKLKETLRQHREMALLSKKLAAIRRDAPVELSLDDIVYQGEDREKVVALFKELGFQSFLEKMESPSSEEEKPLAKMAFTLADRVTEEMLADKAALVVEVVEENYHDAPIVGIAVVNEHGRFFLRPETALADPQFVAWLGDETKKKSMFDSKRAAVALKWKGIELCGVSFDLLLAAYLLDPAQGVDDVAAAAKMKQYEAVRSDEAVYGKGAKRAVPDEPVLAEHLVRKAAAIWALERPFLDELRRNEQDRLLVELEQPLSSILAEMEFAGVKVDTKRLEQMGEELAEQLRTVEQRIYELAGQEFNINSPKQLGVILFEKLQLPVLKKTKTGYSTSADVLEKLAPYHEIVENILHYRQLGKLQSTYIEGLLKVVRPDTKKVHTIFNQALTQTGRLSSTEPNLQNIPIRLEEGRKIRQAFVPSESDWLIFAADYSQIELRVLAHIAEDDNLMEAFRRDLDIHTKTAMDIFQVSEDEVTPNMRRQAKAVNFGIVYGISDYGLAQNLNISRKEAAEFIERYFESFPGVKRYMENIVQEAKQKGYVTTLLHRRRYLPDITSRNFNVRSFAERMAMNTPIQGSAADIIKKAMIDLNARLKEERLQARLLLQVHDELILEAPKEEMERLCRLVPEVMEQAVTLRVPLKVDYHYGSTWYDAK
As to B2, the values for the kcat in series [3] (setting [5]) and in series [3] (setting [6]) were 73 ± 16 s⁻¹ and 43 ± 7 s⁻¹, respectively.

B3: Dictyoglomus thermophilum strain Rt46B.1 (Dth) DNA polymerase, SEQ ID NO:22 (Dictyoglomus thermophilum) (protein)
chain: MKYLLPTAAAGLLLLAAQPAMAMDIGINSDPKSLWDLFQENTEKESKRKILIIDGSSLIYRVYYALPPLKTKNGELTNALYGFIRILLKAVEDFNPDLVGVAFDRPEPTFRHVIYKEYKAKRPPMKDDLKAQIPWIREFLRLNDIPLLEEPGYEADDIIATIVNKYKDDLKYILSGDLDLLQLVSDKTFLIHPQKGITEFTIYDPKAVKDRFGVEPYKIPLYKVLVGDESDNIPGVNGIGPKKASKILEKISSVDEFKSKIKVLDSDLRELIEKNWNIIERNLELVTLKNIDKDLILKPFEIKRDEKVIDFLKRYELKSILQKLFPDLQEEENIEIKDVEEINFNEVEKEGYFAFKCLGDRAFEGISLSFKEGEGYFISPFDFNNEIRKKIENIISSENVKKIGSYIQRDLHFLNCKIKGDVFDVSLASYLLNPERQNHSLDILIGEYLNKTSFIPQKYAGYLFPLKSILEERIKNEGLEFVLYNIEIPLIPVLYSMEKWGIKVDKEYLKQLSDEFCERIKKLEEEIYELAGTRFNLNSPKQLSEVLFERLKLPSGKKGKTGYSTSSSVLQNLINAHPIVRKILQYRELYKLKSTYVDAIPNLVNPQTGRVHTKFNPTGTATGRISSSEPNLQNIPIKSEEGRKIRRAFVSEDGYFLVSLDYSQIELRIMAHLSQEPKLISAFQKGEDIHRRTASEIFGVPEEEVDDLLRSRAKAVNFGIIYGISSFGLSETVSITPEEAEKFIDSYFKHYPRVKLFIDKTIHEAREKLYVKTLFGRKRYIPEIKSINKQVRNAYERIAINAPIQGTAADIIKLAMIEIYKEIENKNLKSRILLQIHDELILEVPEEEMEFTPLMAKEKMEKVVELSVPLVVEISVGKNLAELK
Turning to B3, the kcat in series [4] (other: Table 40, (dA)270•(dT)40, dTTP, mean ± SD) is 39 ± 15 s⁻¹; in series [4] (other: Table 40, (rA)250•(dT)40, dTTP) it was below 1 s⁻¹.
